Assay results taken from the supplement of paper PMC9170038.

Tested on: MS2 coat protein
Test: apparent KD of MS2 coat protein; designed switch direction (-1 OFF switch, 1 ON switch): -1; higher = weaker reporter binding
In short: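 Designed RNA switches with common flanks were made on Illumina chips by stalled E. coli RNA polymerase. Titration with SNAP-549-labelled MS2 coat protein doubled from 0.7 or 1.5 nM up to 3 µM. Apparent KD is each design's median over clusters after curve-fitting normalised fluorescence.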

[1] = input ligand: microRNA oligo, concentration not stated
[2] = Eterna round: R95, input ligand: FMN 200 uM
[3] = Eterna round: R95, input ligand: microRNA oligo, concentration not stated
[4] = Eterna round: R95, input ligand: none

| Sequence | apparent KD of MS2 coat protein (input ligand: FMN 200 uM) [nM] | apparent KD of MS2 coat protein (input ligand: none) [nM] | apparent KD of MS2 coat protein [1] [nM] | apparent KD of MS2 coat protein [2] [nM] | apparent KD of MS2 coat protein [3] [nM] | apparent KD of MS2 coat protein [4] [nM] |
| --- | --- | --- | --- | --- | --- | --- |
| AAGAUGUCAGGAUAUUAGUAGUAAAUGAAUAAAAUUAUUACUGAGAAGGGACAUGAGGAUCACCCAUGUGCCUU [Mat - Exclusion 4 - Eli Mod - D10] (Eterna round: R97, puzzle: Exclusion 4) | 17.5 | 16.6 | – | – | – | – |
| CCGGCCGCCGUGAGGAUAUGCCCGCGCGCCCGCGGGCAGAAGGCACAUGAGGAUCACCCAUGUCCCGCGGUCCC [salish99_bmx4_r4_123] (Eterna round: R97, puzzle: Brourd's mod of Exclusion 4) | 35.8 | 15.6 | – | – | – | – |
| AAAACGGACCGAGGAUAUACACGAUAUCUUUGCGUAGAAGGCGGACCGGCGACUUGAGGAUCACCCAAGUGUCCUCUUUUGCGG [Mutated MS2 EX1.4] (Eterna round: R96, puzzle: Exclusion NG 1) | 323 | 175 | 110 | – | – | – |
| CUGAUGUCAGGAUAUCAGAAAAGGCGCAAGGACACGCCAAAUGAGAAGGGACAUGAGGAUCACCCAUGUAAAAC [Orata] (puzzle: Exclusion 4) | – | – | – | 107 | 20.8 | 18.1 |
| CAGCCCUGAGGAUAUACAUGAGGAUCACCCAUGUGAAGAACGGGAAACGAAACCCUCAGUAGAAGGCGGGUCAU [Eternabot (Original) Solution 14] (Eterna round: R97, puzzle: Exclusion 3) | 131 | 58.9 | – | – | – | – |
| AGCUGUGGCCGAGGAUAUCUAAACCUCAAAACCGAGGUAUACUCGGACAUGAGGAUCACCCAUGUAGAGAAGGCGGUCUCAGCA [Eli eng2 - 036] (Eterna round: R96, puzzle: Exclusion NG 2) | 107 | 443 | 190 | – | – | – |
| AGCUGUGGCCGAGGAUAUCUGUUCCAAAUAACCGACGUAUAGUCGGACAUGAGGAUCACCCAUGUAGAGAAGGCGGUCUCAGCA [Eli eng2 - 101] (Eterna round: R96, puzzle: Exclusion NG 2) | 136 | 63.9 | 38 | – | – | – |
| UUCCGGUGAGGAUAUUGCACGGUGGGAGAGAGCGCCACUGUCAAGAAGGUACAUGAGGAUCACCCAUGUGAGUA [Eternabot (L1) Solution 24] (Eterna round: R97, puzzle: Exclusion 4) | 21.1 | 25.1 | – | – | – | – |
| UCGGCGCGAGGAUAUACGUUUGCUUUUUUUCGUUUUUGUGUACAUGAGGAUCACCCAUGUAGAAGGCGCGCCGC [Apr-15 SS2-20] (puzzle: Exclusion 2) | – | – | – | – | 14.6 | – |
| AAAAAACAAGGAUAUACGCAGGAGGGUUGUCUUAAUUUUUGACAUGAGGAUCACCCAUGUAGAAGGUGUUAAAA [JR_Exclusion2_Sub013] (puzzle: Exclusion 2) | – | – | – | – | 220 | – |
| AAUAAGCAAGGAUAUACGACGAAAAGCGUCAGUGGGCGAUGACAUGAGGAUCACCCAUGUAGAAGGUGCACAUC [Isragela] (puzzle: Exclusion 2) | – | – | – | 314 | 125 | 203 |
| AUAAUGUAAGGAUAUCAGUCGUACAGCUUCGGCUGUACGACUGAGAAGGUACAUGAGGAUCACCCAUGUGAUCA [E4/8-A1] (Eterna round: R97, puzzle: Exclusion 4) | 185 | 1680 | – | – | – | – |
| GGAGAGUCAGGAUAUCGAAGGUAGUGGAGAGGAGUGUGGUACGAGAAGGGACAUGAGGAUCACCCAUGUAGGUG [JR_Exclusion4)Sub010] (puzzle: Exclusion 4) | – | – | – | 306 | 423 | 478 |
| CCAGGCGUCUUUGCUCGUCUUAUUUGGAGAGGACUGAUAACAUGAGGAUCACCCAUGUGUGUGGGAGCGUUGCAGUG [JR_SV3TOV2_Sub020] (puzzle: Sensor v3, turn-off variant 2) | – | – | – | 86.3 | 161 | 116 |
| AAGGGUACUUUCGGAACGACAUGAGGAUCACCCAUGUAGACUGAGGAUAUCUGCUACUAAGGACGGGAGAAGGCAGUGUAAUGU [Ex NG3 #75] (Eterna round: R96, puzzle: Exclusion NG 3) | 18.5 | 18.7 | 12.8 | – | – | – |
| AUUGAUAGCACAGGAUAUUGAGAUUUGAAUUGACAAGAAGGGUGUACAUGAGGAUCACCCAUGUAAUGGUUGAGUGGUUGAUUA [JR_ExcNG1_Sub003] (Eterna round: R96, puzzle: Exclusion NG 1) | 953 | 1140 | 829 | – | – | – |
| AGAGAGUCAGGAUAUCGAAGGUAGAGAAAAGGAGAGUGGUACGAGAAGGGACAUGAGGAUCACCCAUGUAGGUG [JR_Exclusion4)Sub013] (puzzle: Exclusion 4) | – | – | – | 343 | 431 | 441 |
| UCAUGGUAGCAGGAUAUGCUAGAAAUUUUUUAUGCAGAAGGGCUUACAUGAGGAUCACCCAUGUGUUAGGUUUA [JR_E6_Sub071] (puzzle: Exclusion 6) | – | – | – | 22.3 | 110 | 221 |
| UUGCCGCAAGGAUAUGCAGACAAGUACAAUACGUGUCUCGGACUUGAGGAUCACCCAAGUAGAAGGCUUUUUAU [LRO-Excl2-14-mod _r4_621 by salish99] (Eterna round: R97, puzzle: Exclusion 2) | 23.7 | 21.4 | – | – | – | – |
| UUUAUAUAGUAAGGAUAUGUAUUAUUUUUUACAACAGAAGGUACUGACAUGAGGAUCACCCAUGUUUUAGUGUGGGCAUGUAGU [JMF's solution 100] (Eterna round: R96, puzzle: Exclusion NG 1) | – | – | 217 | – | – | – |
| UAUUAGCAAGCAAAUGGGUACAUGAGGAUCACCCAUGUGCUCGUCUUAUAAGGUACUGUGACGACAGUCACGGUACC [mod--Eli4] (Eterna round: R97, puzzle: Sensor, turn-off variant 1) | 24.5 | 25.3 | – | – | – | – |
| UUUUUGUGAGGAUAUUAGUAGUAAAAAAAUAAAAUUACUACUGAGAAGGCACAUGAGGAUCACCCAUGUUCCUC [salish99_ex4_r3_040] (puzzle: Exclusion 4) | – | – | – | – | 34.9 | – |
| GGUCAGACGGUAGGAUAUCCAUAUCGAGUGACCCUUUUAUAACAUGAGGAUCACCCAUGUCGGUGGGAGAAGGGCCGUACGGCG [salish99_ExNG02_R04_003] (Eterna round: R96, puzzle: Exclusion NG 2) | 445 | 401 | 304 | – | – | – |
| ACUCAGUGAGGAUAUCGCCAAAGAGCCGUAACGGCCUUUGAUGAGAAGGCACAUGAGGAUCACCCAUGUAAGCA [EX4 C.1] (Eterna round: R97, puzzle: Exclusion 4) | 387 | 122 | – | – | – | – |
| AGCAUGCAGUAGGAUAUCGAUCCGCAAUAUGAACGAGAAGGGCUGACAUGAGGAUCACCCAUGUGCGUCCUAGG [jl-ex6-4.40 ViennaUCT mod] (Eterna round: R97, puzzle: Exclusion 6) | 19.4 | 20.2 | – | – | – | – |
| AAAGGACGAGGAUAUACAUGAGGAUCACCCAUGUAAAAAGCAUAAUAAAAUAACUUAUGUAGAAGGCGUCCAAA [Mat - Exclusion 3 - Eli mod - D91] (Eterna round: R96, puzzle: Exclusion 3) | – | – | 18.5 | – | – | – |
